Two molecules from US20250136703A1 (PHANES THERAPEUTICS, published 2025) can be followed below.

In experiment [1] the target is T1, recombinant human IL13Ra2 (ACROBiosystems; CAT #: IL2-H52H5) (human, UniProt Q14627 27-343).
T1 construct: Bought protein, coated on the ELISA plate; also called Interleukin-13 Receptor Subunit Alpha 2; immobilized recombinant IL13Ra2
T1 sequence (looked up): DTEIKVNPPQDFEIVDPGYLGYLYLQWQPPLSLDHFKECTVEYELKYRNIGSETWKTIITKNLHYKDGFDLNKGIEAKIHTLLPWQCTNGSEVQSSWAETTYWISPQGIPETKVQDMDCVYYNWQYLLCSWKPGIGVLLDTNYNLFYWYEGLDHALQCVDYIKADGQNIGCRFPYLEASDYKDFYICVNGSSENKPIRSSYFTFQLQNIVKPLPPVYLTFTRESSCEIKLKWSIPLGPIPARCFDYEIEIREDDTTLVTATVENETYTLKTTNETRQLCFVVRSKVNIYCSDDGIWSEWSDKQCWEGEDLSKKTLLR
The experiment in a line: ELISA, antigen coated on plate, anti-human IgG Fc-HRP detection. An excerpt:
FIGS. 1A-1E show the binding of purified chimeric anti-IL13Ra2 mAbs (VH and VL regions of mouse mAb fused to the constant regions of human IgG1 heavy chain and kappa light chain, respectively) to immobilized recombinant IL13Ra2 in an ELISA assay. The antigen was human IL13Ra2 (ACROBiosystems; Newark, DE; CAT #: IL2-H52H5). L3A6-C refers to the chimeric version of L3A6, other antibodies following the same naming rule; Isotype control (IgG1) was included as a negative control antibody.
Purified chimeric mAbs were tested in an ELISA assay for their ability to bind to immobilized IL13Ra2. Recombinant human IL13Ra2 in Carbonate-Bicarbonate Buffer (Sigma; St. Louis, MO; Cat #: C3041-100CAP) was coated on a 96-well plate at room temperature for 1 hour. The plate is blocked by 5% BSA in TBST for 1 hour at room temperature. In each well of an individual plate, mAbs at various concentrations were incubated for 1 hour at room temperature. The plate was washed and the binding to IL13Ra2 was detected by a mouse anti-human IgG Fc antibody conjugated to horseradish peroxidase (Genescript; Piscataway, NJ; Cat #: A01854) with incubation for 1 hour at room temperature. Then after washing, the ELISA was developed using One-step Detection Solution (ThermoFisher Scientific; Waltham, MA; Cat #: 34028) and measured as the absorbance at 450 nm. […]
In general terms: In an ELISA, binding on a coated surface is turned into a signal by an enzyme label.

Experiment [2] concerns the target T1, recombinant human IL13Ra2 …. Description: ELISA, antigen coated on plate.

B1: L3A6-C (chimeric version of L3A6) (antibody, V domains shown)
VH: QVQLQQPGAELVKPGAPVKLSCKASGYTFTNYWMNWVKQRPGRGLEWIGRIDPSDTETHYNQEVKDKATLTVDKSSSTAYIQLSSLTSEDSAVYYCARGYGTYYGMDYWGQGTSVTVSS
VL: not shown
notes: Mouse VH and VL fused to the constant regions of human IgG1 heavy chain and kappa light chain
B1: the binding result in experiment [1] was “binds”.

B2: L3A6-H1L1 (humanized mAb constructed with L3A6-H1 heavy chain and L3A6-L1 light chain) (antibody, V domains shown)
VH: QVTLRESGPALVKPTQTLTLTCTASGYTFTNYWMNWVRQPPGKALEWIGRIDPSDTETHYNQEVKDRATLSVDKSKNQAVLTMTNMDPVDTATYYCARGYGTYYGMDYWGQGSLVTVSS
VL: DIVLTQSPDSLSVSLGERATINCRASESVDNYGISFMNWFQQKPGQPPKLLIYAASNQGSGVPDRFSGSGSGTDFTLTISSLQAEDVAVYFCQQSKEVPWTFGGGTKVEIK
notes: Humanized VH and VL fused to the constant regions of human IgG1 heavy chain and kappa light chain
For B2, the binding result in experiment [2] is “binds”.
